Measurements as given in patent US20240301064A1 (published 2024).
“And” between values parts separate entries of the source, which are not always exact repeats. Identical values can stand only once.

molecular target: T1, human PD-1 (human, UniProt Q15116 25-167, limits assumed); assay: BLI, antibody on AHC tip, soluble PD-1
T1 construct: also called huPD-1
T1 sequence (Q15116 25-167 limits assumed): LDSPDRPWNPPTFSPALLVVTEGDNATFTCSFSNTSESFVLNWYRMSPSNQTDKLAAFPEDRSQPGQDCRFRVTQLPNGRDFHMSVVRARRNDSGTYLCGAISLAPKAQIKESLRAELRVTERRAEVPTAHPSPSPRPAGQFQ

Binder	Kd
PMAB134 (bispecific antibody, human IgG1, kappa) heavy: EVQLLESGGGLVQPGGSLRLSCAASGFTFSNSDMSWVRQAPGKGLEWVSGITISGGSTYYADSVKGRFTISRDNSKNTLYLQMNSLRAEDTAVYYCARGRGGSGWLDYWGQGTLVTVSSASTKGPSVFPLAPSSKSTSGGTAALGCLVKDYFPEPVTVSWNSGALTSGVHTFPAVLQSSGLYSLSSVVTVPSSSLGTQTYICNVNHKPSNTKVDKKVEPKSCDKTHTCPPCPAPEAAGAPSVFLFPPKPKDTLMISRTPEVTCVVVDVSHEDPEVKFNWYVDGVEVHNAKTKPREEQYNSTYRVVSVLTVLHQDWLNGKEYKCKVSNKALPAPIEKTISKAKGQPREPQVYTLPPSREEMTKNQVSLTCLVKGFYPSDIAVEWESNGQPENNYKTTPPVLDSDGSFFLYSKLTVDKSRWQQGNVFSCSVMHEALHNHYTQKSLSLSPGGGGGSGGGGSGGGGSEVQLLESGGGLVQPGGSLRLSCAASGFTFSDFWMHWVRQAPGKGLEWISYISGDSGYTNYADSVKGRFTISRDNSKNTLYLQMNSLRAEDTAVYYCARDRPYYYYMDVWGKGTTVTVSSGGGGSGGGGSGGGGSGGGGSDIQMTQSPSSLSASVGDRVTITCRASQSVSRSLAWYQQKPGKAPKLLIYAASSLQSGVPSRFSGSGSGTDFTLTISSLQPEDFATYYCQQYKSYPVTFGQGTKVEIK light: not shown	0.006 µM and 0.0116 µM and 0.0111 µM
PMAB135 (bispecific antibody, human IgG1, kappa) heavy: EVQLLESGGGLVQPGGSLRLSCAASGFTFSSSDMSWVRQAPGKGLEWVSGITISGGSTYYADSVKGRFTISRDNSKNTLYLQMNSLRAEDTAVYYCARGRGGSGWLDYWGQGTLVTVSSASTKGPSVFPLAPSSKSTSGGTAALGCLVKDYFPEPVTVSWNSGALTSGVHTFPAVLQSSGLYSLSSVVTVPSSSLGTQTYICNVNHKPSNTKVDKKVEPKSCDKTHTCPPCPAPEAAGAPSVFLFPPKPKDTLMISRTPEVTCVVVDVSHEDPEVKFNWYVDGVEVHNAKTKPREEQYNSTYRVVSVLTVLHQDWLNGKEYKCKVSNKALPAPIEKTISKAKGQPREPQVYTLPPSREEMTKNQVSLTCLVKGFYPSDIAVEWESNGQPENNYKTTPPVLDSDGSFFLYSKLTVDKSRWQQGNVFSCSVMHEALHNHYTQKSLSLSPGGGGGSGGGGSGGGGSEVQLLESGGGLVQPGGSLRLSCAASGFTFSDFWMHWVRQAPGKGLEWISYISGDSGYTNYADSVKGRFTISRDNSKNTLYLQMNSLRAEDTAVYYCARDRPYYYYMDVWGKGTTVTVSSGGGGSGGGGSGGGGSGGGGSDIQMTQSPSSLSASVGDRVTITCRASQSVSRSLAWYQQKPGKAPKLLIYAASSLQSGVPSRFSGSGSGTDFTLTISSLQPEDFATYYCQQYKSYPVTFGQGTKVEIK light: not shown	0.003 µM
PMAB136 (bispecific antibody, human IgG1, kappa) heavy: EVQLLESGGGLVQPGGSLRLSCAASGFTFSNYDMSWVRQAPGKGLEWVSGITISGGSTYYADSVKGRFTISRDNSKNTLYLQMNSLRAEDTAVYYCARGRGGSGWLDYWGQGTLVTVSSASTKGPSVFPLAPSSKSTSGGTAALGCLVKDYFPEPVTVSWNSGALTSGVHTFPAVLQSSGLYSLSSVVTVPSSSLGTQTYICNVNHKPSNTKVDKKVEPKSCDKTHTCPPCPAPEAAGAPSVFLFPPKPKDTLMISRTPEVTCVVVDVSHEDPEVKFNWYVDGVEVHNAKTKPREEQYNSTYRVVSVLTVLHQDWLNGKEYKCKVSNKALPAPIEKTISKAKGQPREPQVYTLPPSREEMTKNQVSLTCLVKGFYPSDIAVEWESNGQPENNYKTTPPVLDSDGSFFLYSKLTVDKSRWQQGNVFSCSVMHEALHNHYTQKSLSLSPGGGGGSGGGGSGGGGSEVQLLESGGGLVQPGGSLRLSCAASGFTFSDFWMHWVRQAPGKGLEWISYISGDSGYTNYADSVKGRFTISRDNSKNTLYLQMNSLRAEDTAVYYCARDRPYYYYMDVWGKGTTVTVSSGGGGSGGGGSGGGGSGGGGSDIQMTQSPSSLSASVGDRVTITCRASQSVSRSLAWYQQKPGKAPKLLIYAASSLQSGVPSRFSGSGSGTDFTLTISSLQPEDFATYYCQQYKSYPVTFGQGTKVEIK light: not shown	0.036 µM
